Measurements as given in the nanobody polyreactivity screen of Harvey et al. (2022).

Experiment: yeast display, Sf9 membrane polyspecificity reagent, FACS + sequencing; frameworks hold sequencing errors
In short: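 Sorting gates, low and high (top ~1%), were placed on anti-HA fluorescence to track expression and on streptavidin fluorescence to track reagent binding. A clone's polyreactivity label is taken from the gate it came out of. The reagent was 10% biotinylated, detergent-solubilized Sf9 membrane, applied for 1 hour at 4 °C to galactose-induced yeast display cells.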

| Sequence | polyreactivity (PSR sort gate) |
| --- | --- |
| QVQLVESGGGLVQAGGSLRLSCAASGTTYSINAMGWYRQATGKERELVAAISSGGSTYYADSVKGRFTISRDNAKYTVYLQMNSLIPEDTAVYYCAVDPSWTYWSTYRYDYWGQGTQVTVSS | low polyreactivity |
| QVQHVESGGGLVQAGGSLRLSCAASGSIFPDNAMGWYRQAPGQERELVAAIDKGTGSTNYADSVTGRFTLSRDNAKNNVYFQMNSLKPEDTAVYYCAKGWLTPRGGAWYDDYWGQGTHVTVSS | low polyreactivity |
| QVQLVESGGGLVHAGGSLRLSCAASGSIFAANAMGWYRQAPGKERELVAAISSSGDITYYADSVKGRFTISRDNAKNSVFLQMNSLKPEDTAVYYCAARRYPYHEDNYWGQGTQVTVSS | high polyreactivity |
| QVQLVESGGGLVQAGGSLRLSCAASGRIFRYNAMGWYRQAPGKERELVASINQRGGSTYYADSVKGRFTISRDNAKNTVYLQMNSLKPEDTAVYYCAKRFNSGYYYWGQGTQVTVSS | high polyreactivity |
| QVQLVESGVGLVQAGGSLRLSCAASGRIFRTYAMGWYRQAPGKERELVAAITSGGGSTYYADSVKGRFTISRDNAKNTVYLQMNSLKPEDTAVYYCAARPGIRSYPPGYGYWGQGTQVTVSS | high polyreactivity |
| QVHLVESGGGLVQAGGSLRLSCAASGSIFPYAMGWYRHAPAKERELVAVISWSGASTYYADSVKGRFTISRDNAKNTVYLQMNSLKQEDTAVYYCAVYRYYKLVHLYGYDYWGQGTQVTVSS | high polyreactivity |
| QVQLVESGGGLVQAGGSHRLSCAASGYIFGYNAMGWYRQAPGKEREFVAAIRFSGGSTYYADSVKGRFTISRDNAKNTVYLQMNSMKPEDTAVYYCAKRGYGHLIPIAYEYWGQGTQVTVSS | low polyreactivity |
| QVQLVESGGVLVQAGGSLRLSCADSGRTFWYYAMGWYRQAPGKEREWVASISASGGSTFYADSVKGRFTISRDNAKNTVSLQMNSLKPEDTAVYYRAAKNAVWRRYEYWGQGTQVTVSS | high polyreactivity |
| QFQLVESGGGLVQAGGSLRLSCAASGITFVYYAMGGYRQAPGKERELVAAISRGGTSTYYADSVKGRFTISRDNAKNTVYLHMNSLKPEDTAVYYCNARYPKSYRTNYYYWGQGTQVTVSS | high polyreactivity |
| QVQLVEAGGGLVQAGGSLRLSCADCVSTGVNTMGWYRQAPGKERELVDAIRATGGSTYYADSVKGRFTISRDNAKNTVYLQMNSLKPEDTAVYYCAAKWFRLYLRQDRYYYWGQGTQVTVSS | high polyreactivity |
| QVQLVESGGGLVQAGGRLRLSCAASGRTLVSNAMGWYRQAPGKERELVAAITYSGGSTYYADSVKGRFTISRDNAKNTVYLQMNSLKPEDTAVYYCAKVGRLYRVGGYDYWGQGTQVTVSS | low polyreactivity |
| QVQLVESGGGLVQAGGSLRLSCAASGITINGYVMGWYRQAPGKERELVAAITSGARTYYADSVKGRFTISRDNAKNTVYLQMNSLKPEDTAVYYCAASIWLYRYYYWGQGTQVTVSS | high polyreactivity |
| QVQLVESGGGLVQAGGSLRLSCAASGYTFGHYAMGWYRQAPGKERELVAVNTSGGSTNYADSVKGRFTISRDNAKNTVYLQMNSLKPEDTAVYDCAADLYFYYVWIRDYWGQGTQVTVSS | low polyreactivity |
| QVQLVESGGGLVQAGGSLRLSCAASGSIFGRYAMGWYRQAPGKERELVAAISSSGGRTYYADSVNGRFTISRDNAKNTVYLQMNSLKPEDTAVYYCNAGTPYRGDYWGQGTQVTVSS | high polyreactivity |
| QVQLVESGGGLVQAGGSLRLSCAASGFTFDIYAMGWYRQAPGKERELVATISRSGGTTYYADSVKGRFTISRDNAKNTVYLQMNSLKPEDTAVYYCAAGAYSYRYRYRMDYWGQGTQVTVSS | high polyreactivity |
| QVQLVESGGGLVQAGGSLRLSCAASGSTFVGYAMGWYRQAPGQERELVAGITINGGSTYYADSVKGRFTISRDNAKNTVYLQMNSLKPEDTAVYYCAATGNENYPDPLQSMDYWGQGTQVTVSS | low polyreactivity |
| QVQLVESGGGLVQAGGSLRLSWAASGSTFNSYAMGCYRQAPWKERELVAAITWSGGSTFYADSVKGRVTISRDNAKNTVYLQMNSLKPEDTSVYYCNADGPYYPPYPSTYVDGDSWGQGTQVTVSS | low polyreactivity |
| QVQLVESGGGLVQAGGSLRLSCAASGRIFYNNAMGWYRQAPGKERELVATISRGGSTNYADSVKGRFTISRDNAKNTVYLQMNSLKPEDTAVYYCAAVTTRSYGYEYWGQGTQVTVSS | low polyreactivity |
| QVQLVESGGCLVQAGGSLRLSCAASGSIFRYYNMGWYRQAPGKERELVAVINWSGGSTYYADSVKWRFTISRDNAKNTVYLQMNSLKPEDCAVYYCAICFWRTRRYGADPRTKYDYWGLGTQVTVSS | high polyreactivity |
| QVQLVESGGGLVQAGGSLRLSCAASGTIFGPNAMGWYRKAPGTERELVAAITLSGGSTYYSDSVKGRFTISRDNAKNTVYLPMNSLKPEDTAVYYCAAGPDYGWRRYDYWGQGTQVTVSW | low polyreactivity |
| QVQLVESGGGLVQAGGSLRLSCAASGRIFWYNTMGWYRQAPGKERELVATITTGGRTNYADSVKGRFTISRDNAKNTVYLQMNSLKPEDTAVYYCNAVRGLWVTWRYYYWGQGTQVTVSS | high polyreactivity |
| QVQLVESGGGLVQAGGSLRLSCAASGFTFRNNAMGWYRQAPGKERELVAAISYSGGSTYYADSVKGRFTISRDNAKNTVYLQMNSLKPEDTAVYYCNPRRWSYLEYDYWGQGTQVTVSS | low polyreactivity |

| Sequence | polyreactivity (PSR sort gate) |
| --- | --- |
| QEQLQESGGGQVQAGGSLLLSCAASGNIIRYYYMGWYRQAPGKERELVAAINVGAITYYADSVKGRFSISRDNAKNTVYLPMNSLTPEDTAVYYCAVDQYSEAYYDYWGQGTQATVSS | high polyreactivity |
| QVQLVESGGGLVQAGGSLRLSCAASGSISYFNAMGWYIQAPGKERELVAAISRGATTYADSVKGRFTISRDNAKNTVYLQMNSLKPEDTAVYYCNAGLRGNIRKSYRYDSWGQGTQVTVSS | high polyreactivity |
| QVQLVESGGGLVQAGGSLRLSCAASGGIFYRNAMGWYRQAPGKERELVAAITQSGGRTYYADSVKGRFTISRDNAKNTVYLQMNSLKPEDTAVYYCAARSRKLYGHYRGAYDYWGQGTQVTVSS | high polyreactivity |
| QVQLVESGGGLVQAGGSLRLSCAASGSIFTNNAMGWYRHAPGKERELVAAISRGGSTYYADSVKGRFTISRDIAKNTDFIQMNSLIPEDTAVYYCNARRYRHDGYWGQGTQVTVSS | high polyreactivity |
| QVQLVESGGGLVHAGGSLRLSCADSGRIIGINAMGCYRQAPGKERELVAAINWSGGSTYYADSVKGRFTISRDNAKNTVYLQMNSLKPEDTAVYYCAAQKYKRVGYWGLGTQVTVSS | high polyreactivity |
| QVQLVESGGGLVQAGGSLRLSCAASGSISKFYAMGWYRQAPGKERELVAAISSGGITNYADSLKGRFTISRDNAKNTVYLQMNSLKPEDTAVYYCAKDYPYYEGAKYYYWGQGTQVTVSS | high polyreactivity |
| QVQLVESGGGLVQAGGSLRLSCAASGSIFPSYAMGWYRQAPGKERELVAAISSRGGSTYYADSVKGRFTISRDNAKNTVYLQMNSLKPEDTAVYYCAADWSYYRRHFDYWGQGTQVTVSS | high polyreactivity |
| QVQLVESGGGLVQAGGSLRLSCAASGSTFAIYAMGWYRPAPGKERELVASISGGSTNYADSVKGRFTISRDNAKNTVDLQMNSLKPEDTADYYCAARGALHHWYRYDYWGQGTQVTVSS | low polyreactivity |
| QVQLVESGGGLVQAGGSLRLSCAASGRIFSYTARGWSRQAPGKERELVAAISGSTGNTYYADSVKGRFTISRDNAKTTLYLQMNSLKPEDTAVYYCNKLGYKYDYWGQGTQVTVSS | high polyreactivity |
| QVQLVESGGGLVQAGGSLRLSCAASGFIFNHYAMGWYRQAPGKEREFVAAISWSGGSTYYADSVKGRFTISRDNAKNTVYLKMNSLKPEDTAVYYCAASYNGLWHGDYNYWGQGTQVTVSS | low polyreactivity |
| QVHLVESGGGLVQAGGSLRLSCAASGRTFKHYAMGWYRQEPGKERELVAAITSGGSTYYADSVKGLFTISRDNAKNPVYLQMNSLKPEDTAVYYCNTESFFDTYRRYDSWGQGTQVTVSS | low polyreactivity |
| QVQLVESGGGLVQAGGSLRLSCAASGSTFLTNDMGWYRQAHGKERELVAVITDGDTTYADSVKGRFTISRDNAKNTVYLQMNSLKPEDTAVYYCAADENYWSAGYDYWGQGTQVTVSS | low polyreactivity |
| QVQIVESGGGLVQAGGSLRLSCAASGIIFDYYAMGWYIQAPGKERELVATITSGGSTNYADSVKGRFTISRDNAKNTVYLQMNSLKPEDSAVYYCAARTYWFPDIYPGLGMDYWGHGTQVTVSS | low polyreactivity |
| QVQLVESGGGLVQAGGSLRLSCAASGRIFIYYAMGWDRQAPGKERELVAAISWGGGRTYYADSVKGRFTISRDNAKNTVYLQMNSLKPEDTAVYYCAAGVYTGQHEYDYWGQGTQVTVSS | low polyreactivity |
| QVQLVESGGGLVQAGGSLRLSCAASGIIFWYNARGWYRQAPGKERELVASISTGGRTYYADSVKGRFTISRDNAKNTVYLQMNSLKPEDTAVYYCAAASRVGFLYYYWGQGTQVTVSS | low polyreactivity |
| QVQLVESGGALVQAGGSLRLSCAASGSTFYWNTMGWYRQAPGKERELVASITRGGSTYYADSVKGRFTISRDNAKNTVYLQMNSLKPEDSAVYYCNVLAWSYGYRYYSWGQGTQVTVSS | high polyreactivity |
| QVQLVESGAGLVQAGGSLRLSCAASGSTFEVYAMGWYRQAPGKVMELVADISHIGGSTYSADSVMGRFTISRDNAKNTVYLQLNSLKPEDTAVYYCNAYTVYAYDYWGQGTQVTVSS | low polyreactivity |
| QVQLVESGGGLVQAGGSLRLRCAASGRTFKPYVMGWNRQAPGKERELVAAISSRGGSTYYADSVKGRFTISRDNAKNTFYLQMNSLKPEDTAVYYCNAAYWFSNKYGYWGQGTQVTVAS | high polyreactivity |
| QVQLVESGGCLVQAGGTLRLSCAASGFTIRSNAMGWYRQAPGKERELVADISHGGGTSYADSVKGRFTISRDNAKNTVYLQRNSLKPEDTAVYYCAADLSTYVNYWWEYYYWGQGSQVTVSS | low polyreactivity |
| QVQLVESRGGLVQAGGSLRLSCAASGRIFSNNAMGCYRQAPGKERELVAAITASSGSTYYADSVKGRFTISRDNAKNTVYLQMNSLKPEDTAVYYCAATLRWGFRWYFGFDYWGQGTQLTVSS | high polyreactivity |
| QVQLVESGGGLVQAGGSLRLSCAASGFIFGRNVMGWYRQAPGKERELVASISRSGGRTTYADSVKGRFTISRDNAKNTVYLLMNSLKPEDTAVYYCAKGQYQWERYVSHADYDWGQVTQVTVSS | high polyreactivity |
